Results taken from PMC2830281.

Assays:
Experiment in all cases: latex bead solid phase immunoassay read by flow cytometry
[1] = biological target: mouse IgG2b (native, on latex beads) (mouse)
[2] = biological target: mouse IgA (native, on latex beads) (mouse)
[3] = biological target: mouse IgG3 (native, on latex beads) (mouse)
[4] = biological target: mouse IgM (native, on latex beads) (mouse)
[5] = biological target: mouse IgG2a (native, on latex beads) (mouse)
[6] = biological target: mouse IgG1 (native, on latex beads) (mouse)

Measured: fold lower mean fluorescence intensity than beads with catfish IgM

Chain of mouse IgM (native, on latex beads) (mouse) (P01872 whole entry, chain 1 of 3, other chains not shown): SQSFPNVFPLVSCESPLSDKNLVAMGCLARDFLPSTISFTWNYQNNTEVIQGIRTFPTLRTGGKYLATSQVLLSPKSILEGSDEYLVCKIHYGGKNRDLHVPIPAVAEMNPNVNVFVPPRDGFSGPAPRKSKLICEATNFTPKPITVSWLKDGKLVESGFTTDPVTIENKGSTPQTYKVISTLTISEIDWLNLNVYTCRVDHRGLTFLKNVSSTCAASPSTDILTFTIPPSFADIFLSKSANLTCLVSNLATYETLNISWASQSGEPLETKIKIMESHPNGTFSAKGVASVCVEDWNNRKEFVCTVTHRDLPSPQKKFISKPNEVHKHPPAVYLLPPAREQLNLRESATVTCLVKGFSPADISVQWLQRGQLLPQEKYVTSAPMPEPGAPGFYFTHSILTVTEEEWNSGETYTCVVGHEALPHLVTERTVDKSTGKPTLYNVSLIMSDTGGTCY
Chain of mouse IgM (native, on latex beads) (mouse) (P01592 22-159, chain 3 of 3, other chains not shown, further chain): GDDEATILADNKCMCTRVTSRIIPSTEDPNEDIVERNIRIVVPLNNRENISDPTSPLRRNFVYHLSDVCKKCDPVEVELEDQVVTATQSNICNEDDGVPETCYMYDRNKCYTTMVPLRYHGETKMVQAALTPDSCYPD
Chain of mouse IgG2a (native, on latex beads) (mouse) (P01863 whole entry, chain 1 of 2, other chains not shown): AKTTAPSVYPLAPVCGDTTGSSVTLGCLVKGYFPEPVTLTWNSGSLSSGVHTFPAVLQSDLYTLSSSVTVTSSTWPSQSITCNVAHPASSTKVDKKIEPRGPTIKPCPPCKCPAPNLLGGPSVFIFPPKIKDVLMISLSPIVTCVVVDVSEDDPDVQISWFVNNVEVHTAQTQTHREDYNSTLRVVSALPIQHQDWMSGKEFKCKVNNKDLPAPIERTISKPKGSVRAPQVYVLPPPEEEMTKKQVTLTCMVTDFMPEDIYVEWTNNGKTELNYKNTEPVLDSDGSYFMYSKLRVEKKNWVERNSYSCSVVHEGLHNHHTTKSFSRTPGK

recombinant IpFcRI (D1-D2-D3), channel catfish soluble FcμR (receptor)
5 fold: all assays above
